# Patent publication US20230312750A1 (AD PHARMACEUTICALS, published 2023)
# B1: MAB1 (antibody, V domains shown)
# VH: EVQLVESGGGLVQPGRSLRLSCAASGFTFSSYSMNWVRQAPGKGLEWVSGISSSSSYISYADSVQGRFTISRDNGKNSLYLQMNSLRAEDTALYFCAREYDFWSAYYDAFDVWGQGTMVTVSS
# VL: QSELTQPRSVSGSPGQSVTISCTGTSRNIGGGNDVHWYQQHPGKAPKLLISGVIERSSGVPDRFSGSKSGNTASLTISGLQAEDEADYYCQSFDGSLSGSVFGTGTDVTVL
# B2: evolocumab (purchased from AMGEN) (antibody, V domains shown)
# VH: QVQLVQSGAEVKKPGASVKVSCKASGYTLTSYGISWVRQAPGQGLEWMGWVSFYNGNTNYAQKLQGRGTMTTDPSTSTAYMELRSLRSDDTAVYYCARGYGMDVWGQGTTVTVSS
# VL: QSALTQPASVSGSPGQSITISCTGTSSDVGGYNSVSWYQQHPGKAPKLMIYEVSNRPSGVSNRFSGSKSGNTASLTISGLQAEDEADYYCNSYTSTSMVFGGGTKLTVL
# Legend:
# Test in all cases: cell-based or functional assay
# [1] = target: T1, PCSK9-his (wild-type PCSK9, prepared by Akeso Biopharma) (human, UniProt Q8NBP7 31-692, limits assumed)
# [2] = target: T1, PCSK9-his (wild-type PCSK9, prepared by …); remark: listed apart in the source
# [3] = target: PCSK9(D374Y)-his (Acrobio, cat. no. PCY-H5225) (UniProt Q8NBP7 31-692)
Binder,"EC50 of MAB1 for inhibition of LDLR endocytosis by wild-type PCSK9 (BODIPY-LDL uptake, HepG2 cells) [1] [µg/mL]",EC50 for MAB1 relieving the inhibition of LDL endocytosis in HepG2 cells by PCSK9 [2] [µg/mL],"EC50 for inhibition of LDLR endocytosis by functionally enhanced mutant PCSK9 (PCSK9-D374Y) (BODIPY-LDL uptake, HepG2 cells) [3] [µg/mL]","EC50 for inhibition of LDLR endocytosis by wild-type PCSK9 (BODIPY-LDL uptake, HepG2 cells) [1] [µg/mL]"
B1,32.9,13,,
B2,,,1.26,30.8
